Among the data in PMC8782670, “Production and Characterization of RNA Aptamers Specific for Amyloid Fibril Epitopes” are Kd values, retold here.

The target in the series is beta2-microglobulin, monomer at pH 3.6 (biotinylated, partially folded) (human, UniProt P61769 21-119). In words: SPR; pH 3.6, 250 mM NaCl; apparent, 1:1 fit; SPR: Buffer A pH 3.6, 250 mM NaCl, 25 C, 0.5 uM RNA; dot blot: Buffer A pH 7.0, 1 M NaCl, 10 ug/ml BSA and yeast tRNA, 21 C (Buffer A composition not given). As to conditions: protein: recombinant; tags: biotin; interrupted stem-loop (Mfold). (In SPR one partner is held on a chip, and binding of the other changes the refractive index at the surface.)
Sequence of beta2-microglobulin, monomer at pH 3.6 (biotinylated, partially folded) (P61769 21-119): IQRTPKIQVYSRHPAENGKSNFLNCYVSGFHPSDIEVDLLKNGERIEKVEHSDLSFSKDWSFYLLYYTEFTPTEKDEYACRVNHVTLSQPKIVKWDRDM

B1: M-2 (structured_RNA)
RNA: GGGCCAAGCUUGCAUGCCUGCAGUUGGUUACGCGUACAGUGAAACUCGGAAAGUUGAAGGGCCAAAUGGGAACGGUACCGAGCUCAGGUUCCC
Regarding B1, the Kd was about 10 nM.
